One assay deals with T1, hDEP1 Peptide #1 (human, also: conjugated to BSA).
T1 peptide: AGGTPSPIPDPSV
In words: indirect ELISA, purified soluble scFv. (In an ELISA, binding on a coated surface is turned into a signal by an enzyme label.)

A further assay deals with T2, hDEP1 Peptide #2 (human, also: conjugated to BSA).
T2 peptide: PVLGDIEGTPGFLQVHT
The experiment in a line: indirect ELISA, purified soluble scFv.

For a further assay, the target named is T3, hDEP1 Peptide #3 (human, also: conjugated to BSA).
T3 peptide: EVVPKEPALVLKWT
In words: indirect ELISA, purified soluble scFv.

Assay [1] addresses T4, hDEP1 Peptide #4 (human, also: conjugated to BSA).
T4 construct: also called hDEP1 Peptide #4/BSA
T4 peptide: ADVLKYTYEDFKKGASDT
In words: indirect ELISA, purified soluble scFv.

In assay [2] the target is T5, murine counterpart of hDEP1-ECD-His (murine, UniProt Q64455 524-870).
T5 construct: also called mDEP1
T5 sequence: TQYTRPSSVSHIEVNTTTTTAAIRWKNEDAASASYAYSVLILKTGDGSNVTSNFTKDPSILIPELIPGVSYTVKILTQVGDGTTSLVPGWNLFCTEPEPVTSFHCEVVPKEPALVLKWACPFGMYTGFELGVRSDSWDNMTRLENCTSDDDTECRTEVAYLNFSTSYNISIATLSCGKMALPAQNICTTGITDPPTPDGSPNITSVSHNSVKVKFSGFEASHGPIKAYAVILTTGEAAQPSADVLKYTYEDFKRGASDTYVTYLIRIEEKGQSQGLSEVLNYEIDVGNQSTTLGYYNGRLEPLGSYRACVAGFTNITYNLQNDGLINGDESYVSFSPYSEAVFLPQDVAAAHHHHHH
The experiment in a line: indirect ELISA, purified soluble scFv.

Another assay addresses T6, BSA (UniProt P02769 25-607).
T6 construct: Negative control antigen in the ELISAs; also called negative control (BSA only)
In words: indirect ELISA, purified soluble scFv.

The next assay has as its target T7, hDEP1-ECD-His (human, UniProt Q12913 621-969).
T7 construct: Produced in CHO cells, purified on Ni-NTA; also called recombinant protein hDEP1-ECD-His
T7 sequence: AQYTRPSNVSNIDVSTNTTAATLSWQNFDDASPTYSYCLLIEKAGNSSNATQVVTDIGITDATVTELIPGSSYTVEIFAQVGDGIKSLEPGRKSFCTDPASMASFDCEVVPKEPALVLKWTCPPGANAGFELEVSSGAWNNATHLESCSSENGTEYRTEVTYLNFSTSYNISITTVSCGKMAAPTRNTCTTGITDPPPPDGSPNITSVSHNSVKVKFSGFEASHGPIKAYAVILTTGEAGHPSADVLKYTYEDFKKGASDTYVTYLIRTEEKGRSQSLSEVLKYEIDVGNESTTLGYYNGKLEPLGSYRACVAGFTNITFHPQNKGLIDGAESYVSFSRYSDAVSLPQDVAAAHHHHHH
The experiment in a line: indirect ELISA, purified soluble scFv.

Assay [3] addresses T4, hDEP1 Peptide #4. In words: ELISA, soluble scFv produced in microtiter plate. The protocol: 96 isolated clones from the second, third and fourth rounds of panning were hand-picked and used to produce the respective soluble scFv in microtiter plate. Each clone was then tested in ELISA against hDEP1 Peptide #4/BSA.

Ends that are not written are not given here.

T6 sequence (P02769 25-607 limits assumed): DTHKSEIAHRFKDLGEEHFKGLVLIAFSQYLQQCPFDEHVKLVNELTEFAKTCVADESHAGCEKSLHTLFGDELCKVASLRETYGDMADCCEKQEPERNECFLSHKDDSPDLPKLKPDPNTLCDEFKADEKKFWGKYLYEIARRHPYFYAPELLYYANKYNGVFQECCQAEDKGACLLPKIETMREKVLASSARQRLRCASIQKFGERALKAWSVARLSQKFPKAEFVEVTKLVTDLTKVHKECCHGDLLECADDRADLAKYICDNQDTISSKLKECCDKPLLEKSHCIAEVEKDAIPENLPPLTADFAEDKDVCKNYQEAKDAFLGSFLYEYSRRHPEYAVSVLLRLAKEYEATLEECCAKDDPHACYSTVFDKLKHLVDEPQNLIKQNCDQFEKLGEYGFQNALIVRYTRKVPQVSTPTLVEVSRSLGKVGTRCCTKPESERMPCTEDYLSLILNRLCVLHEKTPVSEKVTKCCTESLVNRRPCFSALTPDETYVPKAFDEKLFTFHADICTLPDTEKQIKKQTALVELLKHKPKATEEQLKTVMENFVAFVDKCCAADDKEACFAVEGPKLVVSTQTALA

B1: 5738-13-R4A-D11 (scFv, V domains shown)
VH: QVQLKESGGGLVQPGRSLKLSCAASGFSFGDYNMAWVRQAPKKGLEWVATISYDDYRTYYRDSVKGRFTISRDDAKATLYLQMDSLRSEDTATYYCARQGGIIRGVWFPYWGQGTLVTVSS
VL: DIQMTQTPASLSASLEEIVTITCQASQDIGNWLAWYQQKPGKSPHLLIYGATTLADGVPSRFSGSRSGTQYSLKISRLQAEDIGIYYCQQASSAPWTFGGGTKLELK
notes: anti-hDEP1 scFv, rat 13 library, format VH/VL-6xHis-Flag
As for B1, the binding result (in the assay with hDEP1 Peptide #1; with hDEP1 Peptide #2; in the assay with hDEP1 Peptide #3; with hDEP1 Peptide #4 [1]; in assay [2]; with BSA) was “no binding” each time.

B2: 5738-10-R4A-G12 (scFv, V domains shown)
VH: QVQLKESGAELAKPGSSVKISCKASGYTFTSDSISWIKQTTGQGLEYIGYIHPGSGVTNYNEKFKGKATLTVDKSSSTAFMQLSSLTPDDSAIYYCARYFDYWGQGVMVTVSS
VL: DILMTQSPSSMSVSLGDTVTITCRASQDVGIYVNWFQQKPGKSPRRMIYRATNLADGVPSRFSGSRSGSDYSLTISSLESEDVADYHCLQYDEYPPTFGGGTKLELK
notes: anti-hDEP1 scFv, rat 10 library, format VH/VL-6xHis-Flag
As for B2, the binding result with hDEP1 Peptide #1 is “no binding”; with hDEP1 Peptide #2, “no binding”; in the assay with hDEP1 Peptide #3 it was “no binding”; in the assay with hDEP1-ECD-His, “binds”; in assay [2], “no binding”; with BSA, “no binding”. The binding result with hDEP1 Peptide #4 [3] is “binds”.

The values above are taken from patent US20240009242A1 (STARKAGE THERAPEUTICS, published 2024).
